Consider four substances from article PMC7714071, “Interaction of amyloid beta with humanin and acetylcholinesterase is modulated by ATP” (FEBS Open Bio, 2020).

For assay [1], the target named is Aβ from A549 cell‐conditioned media (human (endogenous in A549)). Briefly: ELISA; antibody (6E10 or 82E1 against Aβ, or anti‐HN, or anti‐AChE) bound to the wells; 300 μL conditioned medium (0.5 μg·μL^−1) added without or with ATP (100 μM, 1 mM); the partner held with the captured protein detected by its primary antibody. (ELISA stands for enzyme-linked immunosorbent assay.)

The target is the same in assay [2]. Briefly: ELISA; single‐site ELISA for oligomerized Aβ (capture 4G8, detection 4G8‐biotin) against two‐site ELISA for total Aβ (capture 6E10, detection 4G8‐biotin); conditioned media, control or immunodepleted of HN or AChE, without or with ATP.
Assay [3] deals with Aβ from H1299 cell‐conditioned media (human (endogenous in H1299)). The assay is described as above.

Sequence of AChE from A549 cell‐conditioned media (P22303 32-614): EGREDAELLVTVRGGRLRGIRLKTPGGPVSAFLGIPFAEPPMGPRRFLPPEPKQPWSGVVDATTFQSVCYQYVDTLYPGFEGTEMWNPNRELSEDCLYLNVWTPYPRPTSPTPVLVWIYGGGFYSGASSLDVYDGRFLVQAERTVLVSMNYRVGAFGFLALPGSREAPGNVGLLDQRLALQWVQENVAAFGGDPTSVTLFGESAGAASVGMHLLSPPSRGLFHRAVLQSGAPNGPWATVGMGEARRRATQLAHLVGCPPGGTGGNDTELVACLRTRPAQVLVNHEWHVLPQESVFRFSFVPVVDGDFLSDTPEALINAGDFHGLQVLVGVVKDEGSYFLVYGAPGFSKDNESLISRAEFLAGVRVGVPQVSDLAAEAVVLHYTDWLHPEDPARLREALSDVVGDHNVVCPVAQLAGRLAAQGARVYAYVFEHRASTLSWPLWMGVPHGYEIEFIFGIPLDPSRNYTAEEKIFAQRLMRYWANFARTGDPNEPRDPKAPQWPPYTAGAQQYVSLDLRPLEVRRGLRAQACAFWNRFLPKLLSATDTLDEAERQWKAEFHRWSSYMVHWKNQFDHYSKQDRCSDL

With “AChE from A549 cell‐conditioned media (from UniProt P22303 32-614) (enzyme)”, in assay [1], the fold decrease in AChE in a complex with Aβ with 100 μM ATP, relative to samples without added ATP stood at 2.3 fold.
Consider “Aβ from A549 cell‐conditioned media (peptide)”, for which, in assay [2], the percent oligomer of the total Aβ that remained after immunodepletion of AChE was found to be 47%, the percent oligomer of the total Aβ that remained after immunodepletion of HN worked out at 86% and the percent oligomer of total Aβ stood at 63%.
In assay [3], “Aβ from H1299 cell‐conditioned media (peptide)” displayed a percent oligomer of the total Aβ that remained after immunodepletion of HN of 69% and a percent oligomer of total Aβ of 48%.
In assay [1], “HN from A549 cell‐conditioned media (peptide)” had a fold increase in HN bound to Aβ with 100 μM ATP, relative to samples without added ATP of 1.85 fold and a fold increase in HN bound to Aβ with 1 mM ATP, relative to samples without added ATP of 2.5 fold.
